Assay results taken from patent publication US20130079286A1 (Pieris, published 2013).

How the values were obtained:
ovalbumin = molecular target: T1, ovalbumin (UniProt P01012 2-386); experiment: capture ELISA
T1 sequence (looked up): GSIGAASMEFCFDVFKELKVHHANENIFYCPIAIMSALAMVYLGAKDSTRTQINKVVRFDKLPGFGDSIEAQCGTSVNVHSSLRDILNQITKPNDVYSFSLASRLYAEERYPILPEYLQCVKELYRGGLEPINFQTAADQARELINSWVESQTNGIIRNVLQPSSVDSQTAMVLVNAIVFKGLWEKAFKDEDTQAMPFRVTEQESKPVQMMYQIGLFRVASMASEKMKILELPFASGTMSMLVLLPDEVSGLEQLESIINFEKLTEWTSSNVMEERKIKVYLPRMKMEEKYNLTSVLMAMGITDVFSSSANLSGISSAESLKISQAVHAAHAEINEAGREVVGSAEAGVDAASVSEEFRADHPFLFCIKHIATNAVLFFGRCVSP

MBP-Aβ40 fusion protein [1] = molecular target: T2, MBP-Aβ40 fusion protein; experiment: SPR (Biacore X), MBP-Aβ40 amine-coupled (1316 RU), mutein as analyte
T2 construct: the entry may be a nucleic acid; Biotin-labelled in the capture ELISA, unlabeled in the direct ELISA and SPR; also called MBP-Abeta40
Description: (§1) FIG. 20 depicts the kinetic real time analysis of Lcn2 muteins H1GA (A) and H1GV (B) measured on a Biacore X instrument at a flow rate of 20 μl/min. The MBP-Aβ40 fusion protein was coupled via amine chemistry to a CMD 2001 chip (ΔRU=1316) and each of the purified Lcn2 muteins was applied in a series at varying concentrations. The measured signal is shown as a grey line while the curve fit is depicted as a black line in each case.
(§2) Real time analysis of the interaction between Lcn2 muteins H1GA or H1GV and MBP-Aβ40 (SEQ ID NO: 33) was performed on a Biacore X system using PBS/T (4 mM KH₂PO₄, 16 mM Na₂HPO₄, 115 mM NaCl, pH 7.4 containing 0.005% (v/v) Tween 20) as running buffer. A 15 μg/mL solution of MBP-Aβ40 from Example 2 in 10 mM Na-acetate, pH 4.5 was immobilized onto a CMD 200I chip (Xantec, Düsseldorf, Germany) using standard amine coupling chemistry, resulting in a ligand density of 1316 resonance units (RU). The purified Lcn2 muteins H1GA and H1GV from Example 20 were applied in concentrations ranging from 4 nM to 128 nM at a flow rate of 20 μL/min. The data were double-referenced by subtraction of the corresponding signals measured for the control channel, which had been activated and blocked with ethanolamine, as well as subtraction of the measured signals for an average of buffer injections.

[2] = molecular target: T3, biotinylated Aβ40 peptide (human, C-terminal biotin group attached via a lysine spacer); experiment: capture ELISA: mutein captured via Strep-tag II, biotinylated Aβ40 titrated
T3 construct: Synthetic peptide (Peptide Speciality Laboratory) with a C-terminal biotin on a lysine spacer; used in the capture ELISAs
Description: (§3) FIG. 19 depicts the binding activity of the Lcn2 muteins H1GA, H1GV, and H1-G1 in capture ELISAs with the biotinylated Aβ targets Aβ40 (A) and Trx-Aβ28 (B). StrepMAB-Immo was immobilized at 10 μg/ml on microtitre plates and employed for capturing of 1 μM Lcn2 muteins via the Strep-tag H. Binding of the biotinylated targets, applied in a dilution series, was then detected by incubation with ExtrAvidin/AP and a subsequent chromogenic reaction with pNPP. […] The data were fitted to a monovalent binding model.

Trx-Aβ28 fusion protein = molecular target: T4, Trx-Aβ28 fusion protein (Escherichia coli (strain K12), UniProt P0AA25 1-76 = thioredoxin, Biotin-labelled through an NHS ester (2:1) in the capture and competitive ELISAs; unlabeled in the direct ELISA and as competitor.); experiment: capture ELISA: mutein captured via Strep-tag II, biotinylated Trx-Aβ28 titrated
T4 construct: the entry may be a nucleic acid; also called TrxAbeta28H6
Description: as §3

MBP-Aβ40 fusion protein [3] = molecular target: T2, MBP-Aβ40 fusion protein; experiment: SPR (Biacore X, FIG. 20), MBP-Aβ40 immobilised, H1GV injected; the table marks the row '* dissociation time not sufficiently long'
Description: as §1, §2

[4] = molecular target: T5, Aβ40 peptide, non-labeled (human); experiment: SPR (Biacore T100), Aβ40 amine-coupled on CM5 (325 RU), mutein as analyte
T5 construct: Non-labeled synthetic peptide (W. M. Keck Laboratory); also called Abeta40; amyloid beta peptide
Description: (§4) FIG. 21 depicts the kinetic real time analysis of the Lcn2 mutein H1GA measured on a Biacore T100 instrument with immobilized Aβ40 using an extended dissociation time for a trace measured at high concentration. The target peptide Aβ40 was coupled via amine chemistry onto the Biacore CM5 chip (ΔRU=325), and the purified Lcn2 mutein H1GA was applied at a flow rate of 30 μl/min. For exact determination of the low koff rate, dissociation was performed for 7200 s at the highest concentration tested. kon rates were determined using the dilution series of the Lcn2 mutein H1GA with both association and dissociation times of 300 s.
(§5) Real time analysis of the interaction between the Lcn2 mutein H1GA and Aβ40 (SEQ ID NO: 29) was performed on a Biacore T100 system (Biacore, Uppsala, Sweden) using PBS/P (4 mM KH₂PO₄, 16 mM Na₂HPO₄, 115 mM NaCl, pH 7.4 containing 0.005% (v/v) Surfactant P20) as running buffer. […] For exact determination of the low koff rate the highest concentration was analysed using a dissociation time of 7200 s. The data were double-referenced as in Example 21. kₒₙ and koff for the binding reaction were determined from the entire data set using Biacore T100 Evaluation Software V2.0.3 for data processing and kinetic fitting. […]

[5] = molecular target: T5, Aβ40 peptide, non-labeled; experiment: SPR (Biacore T100), Aβ40 amine-coupled on CM5 (325 RU), dissociation 7200 s
Description: as §4, §5

MBP-Aβ40 fusion protein [6] = molecular target: T2, MBP-Aβ40 fusion protein; experiment: SPR (Biacore X, FIG. 20), MBP-Aβ40 immobilised, H1GA injected; the table marks the row '* dissociation time not sufficiently long'
Description: as §1, §2

BSA = molecular target: T6, BSA (bovine, UniProt P02769 25-607); experiment: ELISA on coated protein
T6 construct: also called bovine serum albumin

[7] = molecular target: T7, recombinant human fibronectin fragment FN789 (human, UniProt P02751 1173-1539); experiment: ELISA on coated protein
T7 construct: the entry may be a nucleic acid

[8] = molecular target: T8, recombinant human fibronectin fragment FN7B8 (human, UniProt P02751 1173-1448); experiment: ELISA: FN7B8 coated, mutein titrated, detected via Strep-tag II
T8 construct: no separate number is printed for the protein, so the entry may be a nucleic acid

[9] = molecular target: T9, recombinant fibronectin single domain ED-B (human); experiment: SPR (BIAcore X), ED-B amine-coupled (about 180 RU), mutein as analyte
T9 construct: the entry may be a nucleic acid; also called extra domain-B; extra-domain B
Description: (§6) FIG. 27 depicts the kinetic real time analysis of Lcn2 variants N7A (A), N7E (B), N9B (C) and N10D (D) measured on a Biacore X instrument. The single fibronectin domain ED-B was coupled via amine chemistry to a CMD 200 m sensor chip (ΔRU=180) and the purified Lcn2 variants were applied at varying concentrations. The measured signals are shown as traces together with the curve fits.
(§7) Real time interaction analysis of Lcn2 muteins was performed on a BIAcore X instrument using HBS/ET (20 mM Hepes, pH 7.5, 150 mM NaCl, 1 mM EDTA containing 0.005% (v/v) Tween 20) as running buffer. 100 μg/ml solution of recombinant ED-B in 10 mM Na-acetate, pH 4.0 was immobilized on a CMD 200 m Sensorchip using standard amine coupling chemistry, resulting in a ligand density of about 180 resonance units (RU). The purified Lcn2 mutein was applied at a flow rate of 25 μl/min at concentrations of 2.5 up to 160 nM. The sensorgrams were corrected by subtraction of the corresponding signals measured for the control channel, which had been activated and blocked with ethanolamine. […] In the case of N10D the heterogeneous analyte competing reaction model was used for data fitting, resulting in two sets of kinetic constants.

[10] = molecular target: T8, recombinant human fibronectin fragment …; experiment: SPR (BIAcore X), FN7B8 amine-coupled (about 500 RU), mutein as analyte
Source text: (§8) FIG. 13 depicts the kinetic real time analysis of Lcn2 mutein N9B measured on a Biacore instrument. FN7B8 was coupled via amine chemistry to a CMD 200 m sensor chip (ΔRU=500) and the purified Lcn2 mutein was applied at varying concentrations. The measured signal is shown as a grey line whereas the curve fit is depicted as a black line in each case.
as §8, with “14” for “13”, “N7E” for “N9B”
Real time analysis of Lcn2 muteins was performed on a BIAcore X system (BIAcore, Uppsala, Sweden) using HBS/ET (20 mM Hepes, pH 7.5, 150 mM NaCl, 1 mM EDTA containing 0.005% (v/v) Tween 20) as running buffer. 200 μg/ml solution of recombinant FN7B8 in 10 mM Na-acetate, pH 4.0 was immobilized on a CMD 200 m Sensorchip (XanTec bioanalytics, Duesseldorf, Germany) using standard amine coupling chemistry (Biacore, Uppsala, Sweden), resulting in a ligand density of about 500 resonance units (RU). The purified Lcn2 mutein was applied at a flow rate of 25 μl/min at concentrations of 2.5 up to 160 nM. The sensorgrams were corrected by subtraction of the corresponding signals measured for the control channel, which had been activated and blocked with ethanolamine.

[11] = molecular target: T9, recombinant fibronectin single domain …; experiment: SPR (BIAcore X), ED-B immobilised by amine coupling, Lcn2 mutein injected at 0 to 80 nM, 1:1 model
Description: as §6
as §7, with “The purified Lcn2 mutein was applied at a flow rate of 25 μl/min at concentrations of 2.5 up to 160 nM.” left out

T8 sequence (P02751 other isoform, or with tags, fused parts or gaps limits assumed): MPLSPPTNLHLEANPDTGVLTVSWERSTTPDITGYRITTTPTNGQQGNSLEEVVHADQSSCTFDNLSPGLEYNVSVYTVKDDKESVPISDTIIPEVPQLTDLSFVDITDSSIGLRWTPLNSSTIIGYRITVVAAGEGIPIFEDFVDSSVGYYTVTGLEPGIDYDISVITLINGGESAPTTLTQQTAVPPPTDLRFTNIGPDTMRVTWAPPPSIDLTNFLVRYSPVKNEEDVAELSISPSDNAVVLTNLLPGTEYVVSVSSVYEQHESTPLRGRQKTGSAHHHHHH
T5 sequence (peptide, as listed by the source): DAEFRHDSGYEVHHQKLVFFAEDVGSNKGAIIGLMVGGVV
T9 sequence (chain, as listed by the source limits assumed): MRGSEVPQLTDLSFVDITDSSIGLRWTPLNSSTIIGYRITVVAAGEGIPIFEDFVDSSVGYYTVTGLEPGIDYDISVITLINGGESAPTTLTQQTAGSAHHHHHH
T3 sequence (peptide, as listed by the source): as the sequence (peptide, as listed by the source) above
T6 sequence (P02769 25-607 limits assumed): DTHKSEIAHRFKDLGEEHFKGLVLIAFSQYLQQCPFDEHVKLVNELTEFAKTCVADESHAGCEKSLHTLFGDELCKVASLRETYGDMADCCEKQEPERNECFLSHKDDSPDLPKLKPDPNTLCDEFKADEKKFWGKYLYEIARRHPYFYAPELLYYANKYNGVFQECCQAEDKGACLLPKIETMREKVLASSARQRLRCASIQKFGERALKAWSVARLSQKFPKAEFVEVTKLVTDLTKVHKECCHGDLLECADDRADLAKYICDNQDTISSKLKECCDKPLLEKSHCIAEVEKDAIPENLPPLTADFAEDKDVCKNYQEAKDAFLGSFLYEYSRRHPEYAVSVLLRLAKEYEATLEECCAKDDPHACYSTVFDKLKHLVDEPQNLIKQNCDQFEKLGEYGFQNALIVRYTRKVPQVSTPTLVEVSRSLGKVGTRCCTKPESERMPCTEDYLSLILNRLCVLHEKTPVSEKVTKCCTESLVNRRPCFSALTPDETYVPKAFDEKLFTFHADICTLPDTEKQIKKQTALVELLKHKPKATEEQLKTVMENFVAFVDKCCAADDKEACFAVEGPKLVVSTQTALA
T7 sequence (P02751 other isoform, or with tags, fused parts or gaps limits assumed): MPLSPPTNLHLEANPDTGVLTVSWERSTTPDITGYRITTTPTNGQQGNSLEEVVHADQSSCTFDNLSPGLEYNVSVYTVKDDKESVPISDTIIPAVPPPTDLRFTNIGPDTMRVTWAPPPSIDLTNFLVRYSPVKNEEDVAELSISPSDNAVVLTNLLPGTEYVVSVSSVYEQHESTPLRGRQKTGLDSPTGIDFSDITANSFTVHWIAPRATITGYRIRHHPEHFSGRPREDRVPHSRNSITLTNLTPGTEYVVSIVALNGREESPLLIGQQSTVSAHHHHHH

B1: Lcn2 mutein H1GV (designed binder)
chain: QDSTSDLIPAPPLSKVPLQQNFQDNQFHGKWYVVGVAGNVLLREDKDPLKMYATIYELKEDKSYNVTSVGFDDKKCLYKIRTFVPGSQPGEFTLGRIKSEPGGTSWLVRVVSTNYNQHAMVFFKEVAQNRETFNITLYGRTKELTSELKENFIRFSKSLGLPENHIVFPVPIDQCIDG
notes: H1-G1 with Cys36 replaced by Val
ovalbumin
  binding result: no binding
MBP-Aβ40 fusion protein [1]
  Kd: 1.06 nM
  koff: 7.26e-05 s⁻¹
  kon: 68400 M⁻¹ s⁻¹
[2]
  Kd: 4.9 nM
Trx-Aβ28 fusion protein
  Kd: 4.2 nM
MBP-Aβ40 fusion protein [3]
  Kd: 1.1 nM

B2: Lcn2 mutein H1GA (designed binder)
chain: QDSTSDLIPAPPLSKVPLQQNFQDNQFHGKWYVVGAAGNVLLREDKDPLKMYATIYELKEDKSYNVTSVGFDDKKCLYKIRTFVPGSQPGEFTLGRIKSEPGGTSWLVRVVSTNYNQHAMVFFKEVAQNRETFNITLYGRTKELTSELKENFIRFSKSLGLPENHIVFPVPIDQCIDG
notes: H1-G1 with Cys36 replaced by Ala
ovalbumin
  binding result: no binding
MBP-Aβ40 fusion protein [1]
  Kd: 0.476 nM
  koff: 2.75e-05 s⁻¹
  kon: 57700 M⁻¹ s⁻¹
[4]
  Kd: 0.095 nM
  kon: 125000 M⁻¹ s⁻¹
[5]
  koff: 1.18e-05 s⁻¹
[2]
  Kd: 4.2 nM
Trx-Aβ28 fusion protein
  Kd: 3.8 nM
MBP-Aβ40 fusion protein [6]
  Kd: 0.48 nM

B3: Lcn2 mutein N9B (designed binder)
chain: QDSTSDLIPAPPLSKVPLQQNFQDNQFHGKWYVVGRAGNMRLREDKDPAKMVATIYELKEDKSYNVTKVMFQRKKCKYMINTFVPGSQPGEFTLGAIKSPPGPTSTLVRVVSTNYNQHAMVFFKHVFQNREYFHITLYGRTKELTSELKENFIRFSKSLGLPENHIVFPVPIDQCIDG
BSA
  binding result: no binding
[7]
  binding result: no binding
[8]
  Kd: 40.1 nM
[9]
  Kd: 5.26 nM
  koff: 0.00762 s⁻¹
  kon: 1.45e+06 M⁻¹ s⁻¹
[10]
  Kd: 36 nM
  koff: 0.075 s⁻¹
  kon: 2.1e+06 M⁻¹ s⁻¹
[11]
  Kd: 5.3 nM
